Data: US7078385B2, “Methods of inhibiting angiogenesis with fragments and homologs of troponin subunit I” (Boston Life Sciences, Inc., priority 1996, dated 2006)

How the values were obtained:
[1] = tested on: capillary EC from bovine adrenal cortex, bFGF-stimulated; test: bFGF-stimulated capillary EC proliferation (Example 8); type: cell-based; conditions: bFGF as mitogen
Method: (§1) Capillary EC, isolated from bovine adrenal cortex (Folkman, et al., 1979, Proc. Natl. Acad. Sci. USA 76, 5217–5221) were obtained from Children's Hospital (Boston, Mass.). […] Cells were maintained in culture in DME (Dulbecco's Modified Eagle's Medium, Gibco Laboratories) with 10% calf serum (Hyclone) (DME/10) supplemented with 3 ng/ml bFGF or Vascular Endothelial Growth Factor (VEGF) in preparation for these assays.
(§2) Briefly, capillary EC (2,000 cells per well) were plated on gelatinized 96-Well culture plates in DMEM supplemented with 5% (v/v) calf serum and incubated for 24 hours. On day 2, cells were treated with bFGF (Scios Nova; 1 ng/ml) and challenged with the test fractions and/or with purified TnI. For experiments in which VEGF was used as the mitogen, 800 cells per well were plated and allowed to incubate for 3 hours before VEGF (Biomedical Technologies Incorporated; 30 ng/ml) and TnI was added. Control wells contained cells alone and cells stimulated with bFGF or VEGF. On day 5, growth medium was removed from the plates; cells were lysed in buffer containing the detergent Triton x-100 and the phosphatase substrate p-nitrophenyl phosphate. […] Color development was determined using a rapid multiwell plate reader (Dynatech MR 5000) (Moses, et al., 1990, Science 2488, 1408–1410; Moses, et al., 1990, J. Cell. Biol. 119, 474–481; Connolly, et al., 1986, Anal. Biochem. 152, 136–140).

[2] = tested on: capillary EC DNA synthesis; test: Tritiated thymidine incorporation, capillary EC DNA synthesis; type: cell-based, bovine; conditions: tritiated thymidine assay
Method: On day one, 5,000 bovine capillary endothelial cells in DMEM/10% CS/1% GPS are plated onto each well of a 96-well pregelatinized tissue culture plate. On day two, the cell media is changed to DMEM, 2% CS, 1% GPS, 0.5% BSA (complete medium), supplemented with 10 μl of 1 mg/ml “cold” thymidine per 50 ml of medium. On day three, test samples in complete medium are added in duplicate. Additionally, […] (bFGF) is added to each well except for the appropriate controls, to a final concentration of 0.2 ng/well. On day four, 5 μl of 1:13 diluted ^3H-Thymidine stock is added to each well and the plate is incubated for 5–6 hours. Following incubation, the medium is aspirated, and the remainder is rinsed once with PBS, then twice for 5 minutes each with methanol followed by two rinses each for 10 minutes with 5% TCA. The cells are then rinsed with water three times, dried to the plate, and 100 μl of 0.3 N NaOH is added to each well. The contents of the well are then transferred to the scintillation counter vials and 3 mls of Ecolume added to each vial. Samples are then counted on the scintillation counter.

[3] = tested on: bovine aortic smooth muscle cells (SMC); test: Cell specificity: PDGF-BB-stimulated smooth muscle cell proliferation, electronic cell counting; type: cell-based; conditions: doses over 5× higher than the IC50 for capillary EC
Method: BALB/c mouse 3T3 cells were maintained in DME/10, L-glutamine(292 μg/ml) as previously described (Klagsbrun, et al., 1977, Exp. Cell Res. 105, 99–108). Bovine aortic smooth muscle cells (SMC), isolated by explant from the medial layer of bovine aortas, were obtained from Children's Hospital (Boston, Mass.). These cells were cultured in DME/10 on uncoated tissue culture plastic as previously described (D'Amore and Smith, 1993, Growth Factors 8, 61–75).
To determine whether the proliferation of bovine aortic SMC and Balb c/3T3 cells was inhibited by TnI, the following assays were conducted. SMC were plated into multiwell dishes (2.1 cm^2/well) at a density of 10,000 cells/well. After allowing the cells to attach overnight, fresh media was applied containing either 3 ng/ml PDGF-BB alone or in combination with increasing concentrations of purified TnI. Following incubation for 72 hrs at 37° C. in 10% CO2, the cells were rinsed in PBS, detached by trypsinization and counted electronically.

[4] = tested on: BALB/c mouse 3T3 cells; test: Cell specificity: tritiated thymidine incorporation in quiescent 3T3 cells; type: cell-based; conditions: doses over 5× higher than the IC50 for capillary EC
[5] = tested on: embryonic neovascularization of the chick chorioallantoic membrane; test: Chick chorioallantoic membrane (CAM) assay; type: in vivo; conditions: 48 h
Method: All procedures were carried out in a laminar flow hood under sterile conditions. The eggs were stored in a Favorite Egg Incubator (Leahy) at 37° C. and 65% relative humidity. On day 3 of development, fertilized White Leghorn eggs (SPAFAS) were cracked and the embryos removed from their shells and placed in plastic petri dishes. On day 6, test substances including native rabbit TnI (Greaser and Gergely, 1971, J. Biol. Chem. 246, 4226–4233) and recombinant human TnI and appropriate buffer controls were mixed in methylcellulose, disks and applied to the surfaces of the growing CAMs above the dense subectodermal plexus.

[6] = tested on: bFGF-induced corneal angiogenesis; test: Mouse corneal pocket assay; type: in vivo, C57BL/6 mice; conditions: 50 mg/kg subcutaneous every 12 hours, sixth day of treatment
Method: Briefly, pellets composed of bFGF (40 ng/ml), sucrose octasulfate and Hydron were implanted into corneal micropockets of six C57BL/6 mice as previously described (U.S. Pat. No. 5,837,680 to Moses et al.). Troponin I (50 mg/kg) was administered systemically every 12 hours by subcutaneous injection. On the sixth day of treatment, corneal angiogenesis was evaluated using slit lamp microscopy and photographed.

[7] = tested on: B16-BL6 melanoma lung metastases; test: B16-BL6 melanoma lung metastasis model; type: in vivo, C57BL/6 mice
Method: Murine melanoma B16-BL6 were cultured in RPMI 1640 (Gibco) supplemented with 10% (v/v) fetal calf serum (Hyclone), L-glutamine and NaHCO3. Cells were washed with EBSS (Gibco) and trypsinized for 3 to 5 mm with 0.25% TRL/0.2% EDTA to which culture buffer was added for washing. This preparation was then centrifuged for 10 mm at 1000 rpm, the cell pellet resuspended in fresh culture media, cell number determined using a coulter counter and cell viability determined with trypan blue (100% viability). The cell suspension was adjusted to […] for implantation. B16-BL6 cells (5×10^5/0.2 ml) were injected into the tail veins of C57BL/6 mice (approximately 6–7 weeks old). One day following tumor cell inoculation, mice were treated with rTnI systemically, twice per week, with a dose of either 1 mg/kg (n=10) or 20 mg/kg (n=10) or vehicle (150 mM NaCl, 20 mM citrate, pH3) over, a 28 day period. On day 30, animals were sacrificed, the number of lung surface metastases counted and the lungs weighed.

[8] = tested on: capillary EC from bovine adrenal cortex, VEGF-stimulated; conditions: read-out: IC50, capillary EC proliferation; VEGF as mitogen
Method: as §1, §2

B1: rTnI: recombinant human fast-twitch skeletal muscle troponin I expressed in E. coli, about 21 kDa (SEQ ID NO:17) (protein, listed as Homo sapiens)
chain: MGDEEKRNRAITARRQHLKSVMLQIAATELEKEESRREAEKQNYLAEHCPPLHIPGSMSEVQELCKQLHAKIDAAEEEKYDMEVRVQKTSKELEDMNQKLFDLRGKFKRPPLRRVRMSADAMLKALLGSKHKVCMDLRANLKQVKKEDTEKERDLRDVGDWRKNIEEKSGMEGRKKMFESES
With B1 as the molecule, how does the IC50 [1] read?
The IC50 was about 65 nM.

What about the IC50 [2] of the same molecule?
The IC50 was about 240 nM.

What about the “Suppression of growth of bovine aortic smooth muscle cells” value [3] of the same molecule?
Its value is “did not suppress the growth”.

What about the “Suppression of growth of Balb/c 3T3 cells” value [4] of the same molecule?
The value was “did not suppress the growth”.

And the “Eggs with avascular zone (inhibition of embryonic neovascularization)” value ([5]; 130 picomoles)?
Its value is 66%.

And the “Eggs with avascular zone (inhibition of embryonic neovascularization)” value ([5]; approximately 380 picomoles)?
The value was 100%.

And the “Inhibition of bFGF-induced corneal angiogenesis (in words)” value [6]?
The value was “significantly inhibited”.

What about the “Inhibition of lung metastases” value ([7]; 1 mg/kg systemically twice weekly, 28 days, day 30) of the same molecule?
The value was 52%.

What about the “Inhibition of lung metastases” value ([7]; 20 mg/kg systemically twice weekly, 28 days, day 30) of the same molecule?
Its value is 64%.

And the “Number of lung surface metastases (mean, SEM)” value ([7]; 20 mg/kg twice weekly, day 30)?
The value was 25.0+/−7.5.

And the “Toxicity (weight or appetite loss)” value ([7]; 1 or 20 mg/kg twice weekly, 28 days)?
The value was “no observed toxicity”.

What about the “Lung weights, treated versus control groups” value ([7]; 1 or 20 mg/kg twice weekly, day 30) of the same molecule?
The value was “comparable”.

And the IC50 [8]?
Its IC50 is about 1.5 nM.
